Tests used:
[1] = target: HLA-Cw*1701 (Cw17) (human); experiment: Luminex single-antigen beads; rank of MEM-E/02 reactivity among HLA-Ia alleles
HLA-B*2708 (B27) (human) = HLA-B*2708 (B27) (human) (UniProt P01889); experiment: as above
[2] = target: HLA-Cw*0401 (Cw4) (human); experiment: as above
HLA-B*5901 (B59) (human) = experiment: as above
HLA-A*2901 (A29) (human) [3] = target: HLA-A*2901 (A29) (human) (UniProt P04439); experiment: as above
HLA-B*1401 (B64) (human) [4] = target: HLA-B*1401 (B64) (human) (UniProt P01889); experiment: as above
HLA-B*4403 (B44) (human) [5] = experiment: as above
[6] = target: HLA-Cw*1502 (Cw15) (human); experiment: as above
HLA-A*2403 (A24) (human) [7] = experiment: as above
HLA-B*5001 (B50) (human) [8] = experiment: as above
HLA-B*1801 (B18) (human) [9] = experiment: as above
[10] = target: HLA-Cw*0801 (Cw8) (human) (UniProt P10321); experiment: as above
HLA-A*3201 (A32) (human) = experiment: Luminex single-antigen beads; MEM-E/02 1/600; serum Mi59 1/100
HLA-A*3301 (A33) (human) = experiment: as above
[11] = target: HLA-Cw*1701 (Cw17) (human); experiment: as above
HLA-B*4501 (B45) (human) = experiment: as above
HLA-Cw*0304 (human) = experiment: as above
HLA-B*4801 (B48) (human) = HLA-B*4801 (B48) (human) (UniProt P01889); experiment: as above
[12] = target: HLA-Cw*0401 (Cw4) (human); experiment: as above
HLA-A*2501 (A25) (human) = experiment: as above
HLA-A*3002 (A30) (human) = HLA-A*3002 (A30) (human) (UniProt P04439); experiment: as above
HLA-B*1301 (B13) (human) = experiment: as above
HLA-B*5301 (B53) (human) = experiment: as above
HLA-B*1513 (B77) (human) = experiment: as above
HLA-A*2901 (A29) (human) [13] = target: HLA-A*2901 (A29) (human) (UniProt P04439); experiment: as above
HLA-B*1401 (B64) (human) [14] = target: HLA-B*1401 (B64) (human) (UniProt P01889); experiment: as above
[15] = target: HLA-Cw*1802 (Cw18) (human) (UniProt P10321); experiment: as above
HLA-A*2601 (A26) (human) = experiment: as above
HLA-B*1511 (B75) (human) = HLA-B*1511 (B75) (human) (UniProt P01889); experiment: as above
HLA-B*4403 (B44) (human) [16] = experiment: as above
HLA-B*5401 (B54) (human) = HLA-B*5401 (B54) (human) (UniProt P01889); experiment: as above
HLA-B*0801 (B8) (human) = HLA-B*0801 (B8) (human) (UniProt P01889); experiment: as above
HLA-A*2403 (A24) (human) [17] = experiment: as above
HLA-B*5001 (B50) (human) [18] = experiment: as above
HLA-B*3801 (B38) (human) = experiment: as above
HLA-B*1801 (B18) (human) [19] = experiment: as above
[20] = target: HLA-Cw*1203 (Cw12) (human) (UniProt P10321); experiment: as above
[21] = target: HLA-Cw*0801 (Cw8) (human) (UniProt P10321); experiment: as above

MEM-E/02 Reactivity Rank [1]: 28 rank
MEM-E/02 Reactivity Rank (HLA-B*2708 (B27) (human)): > 65 rank
MEM-E/02 Reactivity Rank [2]: > 65 rank
MEM-E/02 Reactivity Rank (HLA-B*5901 (B59) (human)): 20 rank
MEM-E/02 Reactivity Rank (HLA-A*2901 (A29) (human) [3]): 48 rank
MEM-E/02 Reactivity Rank (HLA-B*1401 (B64) (human) [4]): 7 rank
MEM-E/02 Reactivity Rank (HLA-B*4403 (B44) (human) [5]): > 65 rank
MEM-E/02 Reactivity Rank [6]: > 65 rank
MEM-E/02 Reactivity Rank (HLA-A*2403 (A24) (human) [7]): 63 rank
MEM-E/02 Reactivity Rank (HLA-B*5001 (B50) (human) [8]): > 65 rank
MEM-E/02 Reactivity Rank (HLA-B*1801 (B18) (human) [9]): 36 rank
MEM-E/02 Reactivity Rank [10]: 8 rank
MFI (HLA-A*3201 (A32) (human)): < 500 MFI
MFI (HLA-A*3301 (A33) (human)): < 500 MFI
MFI [11]: < 500 MFI
MFI (HLA-B*4501 (B45) (human)): < 500 MFI
MFI (HLA-Cw*0304 (human)): 557 MFI
MFI (HLA-B*4801 (B48) (human)): < 500 MFI
MFI [12]: 4590 MFI
MFI (HLA-A*2501 (A25) (human)): < 500 MFI
MFI (HLA-A*3002 (A30) (human)): < 500 MFI
MFI (HLA-B*1301 (B13) (human)): < 500 MFI
MFI (HLA-B*5301 (B53) (human)): < 500 MFI
MFI (HLA-B*1513 (B77) (human)): < 500 MFI
MFI (HLA-A*2901 (A29) (human) [13]): < 500 MFI
MFI (HLA-B*1401 (B64) (human) [14]): < 500 MFI
MFI [15]: 1080 MFI
MFI (HLA-A*2601 (A26) (human)): < 500 MFI
MFI (HLA-B*1511 (B75) (human)): < 500 MFI
MFI (HLA-B*4403 (B44) (human) [16]): < 500 MFI
MFI (HLA-B*5401 (B54) (human)): < 500 MFI
MFI (HLA-B*0801 (B8) (human)): < 500 MFI
MFI (HLA-A*2403 (A24) (human) [17]): < 500 MFI
MFI (HLA-B*5001 (B50) (human) [18]): < 500 MFI
MFI (HLA-B*3801 (B38) (human)): < 500 MFI
MFI (HLA-B*1801 (B18) (human) [19]): < 500 MFI
MFI [20]: < 500 MFI
MFI [21]: < 500 MFI
Substance: murine monoclonal antibody MAb MEM-E/02

— patent publication US20120171195A1
